# Peptide text beside a SMILES is read from it. * marks the point of attachment. Cbz = O=C(OCc1ccccc1)*
# B1: TGF-β2: Transforming growth factor β2, growth factor released during pregnancy (PeproTech) (protein, UniProt P61812 303-414, looked up)
# Transforming growth factor …: ALDAAYCFRNVQDNCCLRPLYIDFKRDLGWKWIHEPKGYNANFCAGACPYLWSSDTQHSRVLSLYNTINPEASASPCCVSQDLEPLTILYYIGKTPKIEQLSNMIVKSCKCS
# B2: RANKL: receptor activator of nuclear factor kB ligand (protein, UniProt O14788 140-317, looked up)
# Tumor necrosis factor ligand …: IRAEKAMVDGSWLDLAKRSKLEAQPFAHLTINATDIPSGSHKVSLSSWYHDRGWAKISNMTFSNGKLIVNQDGFYYLYANICFRHHETSGDLATEYLQLMVYVTKTSIKIPSSHTLMKGGSTKYWSGNSEFHFYSINVGGFFKLRSGEEISIEVSNPSLLDPDQDATYFGAFKVRDID
# Tests used:
# [1] = tested on: ITGB3 promoter in HCC827 cells; conditions: resuming erlotinib treatment after erlotinib holiday
# [2] = tested on: Slug protein and pY416 SFK in MCF10A cells; assay: Immunoblots of MCF10A cells stimulated with TGF-b2 and treated with inhibitors or antibody; type: cell-based, human; conditions: for Slug protein levels: 10 mM MG132, 5 hr prior to lysis
# Method: FIGS. 21F-G illustrate Immunoblots of MCF10A cells stimulated with TGF-b2 or vehicle control and probed for the indicated proteins. FIG. 21F: Cells were transfected with control (Ctrl) or b3 siRNA and additionally treated with vehicle or proteasome inhibitor (MG132) for 5 hr prior to lysis. FIG. 21G: Cells were treated with 100 nM Src inhibitor (dasatinib) for the indicated length of time prior to lysis. FIG. 21F and FIG. 21G: Data shown are representative of three independent experiments.
# Indeed, Slug protein levels are highly regulated through degradation by the proteasome (Kim et al. 2012; Wu et al., 2012). […] Thus, it appears that TGF-β2-stimulated expression of a αvβ3 mediates SFK activation resulting in enhanced Slug protein stability.
# (§1) For experiments with MCF10A and HMECs, TGF-b2 stimulations were performed with 5 ng/ml TGF-b2 (PeproTech) or 0.1% BSA/PBS (vehicle) for 48 hr prior to lysis. In some experiments, […] of the anti-αvβ3 function-blocking antibody LM609 (Millipore) was added to cells at the same time as TGF-b2 or vehicle addition. For the proteasome inhibitor experiments, 10 mM MG132 (Sigma-Aldrich) or DMSO (vehicle) was added to transfected MCF10A cells 5 hr prior to lysis. Treatment of MCF10A cells with the SFK inhibitor dasatinib (ChemieTek) or DMSO (vehicle) was performed with 100 nM dasatinib for the indicated times prior to harvesting lysates.
# [3] = tested on: β3 expression in MaSCs/basal cells; assay: β3 expression in K14+SMA+ cells from virgin WT mammary cells stimulated with growth factors (immunofluorescence); type: cell-based, mouse; conditions: cells from virgin WT mice; relative to vehicle-treated cells; TGF-b2 5 ng/ml, TGF-b1 5 ng/ml, RANKL 50 ng/ml, 48 hr
# Excerpt: (§2) To examine the ability of these factors to increase β3 expression, we stimulated cells from virgin WT mice and measured β3 expression in MaSCs/basal cells, defined by expression of K14 and SMA.
# FIG. 20A illustrates representative immunofluorescent images of β3 expression in K14+SMA+ cells (arrows) from pooled virgin WT mammary cells stimulated with the indicated growth factors. Nuclei are stained blue in all panels. Scale bars, […]. Data shown are representative of three independent experiments.
# (§3) Cells from digested mammary glands were seeded at 40,000 cells per well onto MEFs (for colony-formation assays) or 8-well chamber slides (Lab-Tek) coated with 2% Matrigel/DMEM. At the time of seeding, cells were suspended in complete DMEM supplemented with vehicle (0.1% BSA/PBS), RANKL (50 ng/ml), TGF-b1 (5 ng/ml), or TGF-b2 (5 ng/ml) (PeproTech). Cells were fixed with 2% paraformaldehyde/PBS after 48 hr (chamber slides) or 5 days (colonies) for immunofluorescent staining.
# [4] = tested on: MaSC/basal and luminal colonies from virgin mammary cells; assay: Mammary colony formation on irradiated MEFs with growth factors; type: cell-based, mouse; conditions: for total colony number: virgin mammary cells on irradiated MEFs
# Method: This effect was reduced in mammary cells from β3KO mice (FIG. 20H), similar to our results from pregnant b3KO mice (FIG. 19C).
# For colony formation on irradiated MEFs, 100,000 MEFs were seeded into 6-well dishes for 48 hr prior to adding 40,000 cells from digested mammary glands and grown in complete Dulbecco's modified Eagle's medium (DMEM). Colonies formed over 5-6 days before fixing and staining with either 0.1% crystal violet/20% methanol/PBS or 2% paraformaldehyde/PBS for immunofluorescent staining and counting colonies. For Matrigel colonies, 5,000 fluorescence-activated cell sorting (FACS) mammary gland cells were suspended in […] growth factor-reduced Matrigel (BD PharMingen) and grown 14 days in serum-free mammary epithelial cell medium-basal medium (Cambrex) supplemented with B27 supplement, 20 ng/ml epidermal growth factor, 20 ng/ml […] fibroblast growth factor, […], 100 U/ml penicillin, and […] streptomycin. Total colonies per well were counted from each of the four replicates per experiment.
# as §3
# [5] = tested on: nuclear Slug in K14+SMA+ MaSCs/basal cells; assay: Slug expression in K14+SMA+ mammary cells stimulated with TGF-β2; type: cell-based, mouse
# Excerpt: Slug was recently characterized as a determinant of the MaSC fate in the virgin mammary gland (Guo et al., 2012) and is expressed during early to midpregnancy but is negatively regulated by Elf5 during late stage pregnancy/lactation, allowing for alveolar maturation (Chakrabarti et al., 2012). Therefore, we considered whether β3 was required for TGF-β2-mediated Slug expression in MaSCs/basal cells.
# To determine the potential mechanism by which αvβ3 regulates Slug, we considered whether αvβ3 signaling may be required by assessing whether the b3DC mutant affects Slug expression. […] The β3DC mutant has previously been characterized as defective in recruiting and activating Src family kinases (SFKs) (Ablooglu et al., 2009; Arias-Salgado et al., 2003; Desgrosellier et al., 2009).
# FIG. 21B graphically illustrates quantitation of the percentage of Slug+K14+SMA+ cells. p=0.0439 (vehicle versus TGF-b2 inWT cells) and p=0.0342 (WT versus b3KO cells stimulated with TGF-b2). For FIG. 21A and FIG. 21B: WT, n=3, b3KO, n=3.
# FIG. 21E graphically illustrates quantitation of the percentage of Slug-expressing K14+SMA+ cells from virgin WT and b3DC mammary cells stimulated with vehicle or TGF-b2. WT, n=2, b3DC, n=2. p=0.029 (vehicle versus TGF-b2 in WT cells) and p=0.032 (WT versus b3DC cells stimulated with TGF-b2).
# as §3
# β3 promoter = β3 promoter luciferase reporter in MCF10A cells; type: cell-based, human; conditions: reporter with proximal 1,300 bp of the β3 promoter
# Excerpt: FIG. 20E graphically illustrates a Histogram displaying the relative luciferase activity in MCF10A cells transfected with an empty vector (Ctrl) or a luciferase reporter plasmid containing the proximal region of the β3 promoter (β3 prom-Luc) and stimulated with vehicle or TGF-β2. n=3 independent experiments. p=0.043.
# [6] = tested on: β3 expression in human mammary epithelial cells (HMECs), MCF10As; assay: Immunoblot for β3 in MCF10As and HMECs stimulated with TGF-b2; type: cell-based; conditions: HMECs including MCF10As; 5 ng/ml TGF-b2, 48 hr
# Method: FIG. 20D illustrates an image of an Immunoblot for β3 and b-actin (loading control) in MCF10As and HMECs stimulated with TGF-b2 or vehicle control. Data shown are representative of three independent experiments.
# as §1
# [7] = tested on: β3 mRNA in CD29hi MaSCs/basal cells and CD29lo luminal cells; assay: qPCR of β3 mRNA in vehicle versus TGF-β2-stimulated CD29hi and CD29lo cells; type: cell-based, mouse
# Excerpt: as §2
# FIG. 20B and FIG. 20C graphically illustrate qPCR analysis comparing the relative levels of β3 mRNA in vehicle versus TGF-β2-stimulated CD29hi (FIG. 20B) and CD29lo (FIG. 20C) cells from WT virgin mice. n=2 independent experiments (pooled samples).
# For FIG. 20B, FIG. 20C, and FIG. 20F: each sample was run in triplicate, and 18S rRNA (FIG. 20B and FIG. 20C) or b-actin (FIG. 20F) was used as loading controls.
# [8] = virgin WT mammary cells on irradiated MEFs, compared to vehicle
molecule,measurement,setting,value
C#Cc1cccc(Nc2ncnc3cc(OCCOC)c(OCCOC)cc23)c1 [erlotinib],expression of β3 and stem cell genes OCT4 and Nanog,[1],re-expression
CC(C)C[C@@H](C=O)NC(=O)[C@H](CC(C)C)NC(=O)[C@H](CC(C)C)NC(=O)OCc1ccccc1 [MG132] (Cbz-Leu-Leu-Leu-aldehyde),Slug protein levels,[2]; b3 knockdown MCF10A cells,restore Slug protein levels to normal
same,Slug protein levels,[2]; control MCF10A cells,little effect
TGF-β1: transforming growth factor β (TGF-β) family member (PeproTech),β3 expression in MaSCs/basal cells (K14 and SMA expressing),[3],not
same,total colony number,[4],severe growth inhibitory effect
B1,Slug expression in K14+SMA+ cells,[5]; cells from β3DC knockin mice,no increase
same,nuclear Slug expression in K14+SMA+ cells,"[5]; virgin WT mammary cells, compared to vehicle control",induced nuclear Slug expression
same,Slug expression in K14+SMA+ cells,[5]; β3KO cells,failed to increase Slug
same,β3 promoter activity (relative luciferase activity),β3 promoter,directly activating the β3 promoter
same,β3 expression (immunoblot),[6],potent driver
same,β3 expression in MaSCs/basal cells (K14 and SMA expressing),[3],stimulated β3 expression
same,"frequency of bipotent, MaSC-like colonies",[4]; [8],increased
same,luminal colonies,[4]; [8],reciprocal decrease
same,total colony number,[4],did not affect
same,β3 mRNA expression,[7]; CD29hi MaSCs/basal cells from WT virgin mice,drive β3 mRNA expression
same,β3 mRNA expression,[7]; CD29lo luminal cells from the same mice,little effect
same,"expression of EMT markers such as Slug, E-cadherin, and Vimentin","[2]; MCF10A cells, TGF-β2 stimulation",drives changes
B2,β3 expression in MaSCs/basal cells (K14 and SMA expressing),[3],not
same,total colony number,[4],potent driver of colony formation
